Results published in patent publication US20240158497A1 (published 2024).

B1: mAb16683 (antibody, V domains shown)
VH: QVQLVESGGGLVKPGGSLRLSCAASGFTFSDYYMTWIRQTPGKGLDWVSYISSSGTNKYNADSVKGRFTISRDNAKNSLYLQMNSLRAEDTAVYYCVRDPPWGMDVWGQGTTVTVSS
VL: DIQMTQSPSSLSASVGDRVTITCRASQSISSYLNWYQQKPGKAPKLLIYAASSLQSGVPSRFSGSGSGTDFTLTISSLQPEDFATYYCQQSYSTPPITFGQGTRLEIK
notes: Conventional anti-GP130 antibody; also called mAb16683 (anti-GP130 mAb)
B2: mAb18445 (antibody, V domains shown)
VH: QVQLQESGPGLVKPSQTLSLTCTVSGGSISSGGDYWSWIRQLPGKGLEWIGYIYYSGSAYYNPSLKSRGTISIDTSKNQFSLKLTSVTAADTAVYFCVKLRFLEWFLGGWFGPWGQGTLVTVSS
VL: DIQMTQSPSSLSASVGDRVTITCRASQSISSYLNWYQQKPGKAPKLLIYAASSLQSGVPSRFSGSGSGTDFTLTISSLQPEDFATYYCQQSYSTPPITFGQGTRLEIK
notes: Conventional anti-LEPR antibody; also called mAB18445 (anti-LEPR mAb)
B3: mAb18446 (antibody, V domains shown)
VH: EVQLVESGGGLVQPGGSLRLSCAASGFTFSNYGMTWVRQAPGKGLEWVSAITGGGGSTYYSNSVKGRFTISRDNSKNTVYLRMNSVRAEDTAVYYCAKYKWNFVDDWGQGTTVTVSS
VL: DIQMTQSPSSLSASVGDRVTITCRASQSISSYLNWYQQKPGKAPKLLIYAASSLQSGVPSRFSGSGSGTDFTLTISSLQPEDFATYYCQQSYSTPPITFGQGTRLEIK
notes: Conventional anti-LEPR antibody; also called mAB18446 (anti-LEPR mAb)

Columns and labels:
[1] = target: T1, full length human GP130 (L2V natural variant) on HEK293/Stat3-luc/gp130-2X Sort cells (human, UniProt P40189 23-918); assay: FACS, 200 nM antibody on HEK293/gp130 2X Sort cells
T1 construct: whole, on cells; Stably over-expressed on HEK293 cells, sorted twice for high expression; also called HEK293/gp130 2X Sort
T1 sequence (looked up): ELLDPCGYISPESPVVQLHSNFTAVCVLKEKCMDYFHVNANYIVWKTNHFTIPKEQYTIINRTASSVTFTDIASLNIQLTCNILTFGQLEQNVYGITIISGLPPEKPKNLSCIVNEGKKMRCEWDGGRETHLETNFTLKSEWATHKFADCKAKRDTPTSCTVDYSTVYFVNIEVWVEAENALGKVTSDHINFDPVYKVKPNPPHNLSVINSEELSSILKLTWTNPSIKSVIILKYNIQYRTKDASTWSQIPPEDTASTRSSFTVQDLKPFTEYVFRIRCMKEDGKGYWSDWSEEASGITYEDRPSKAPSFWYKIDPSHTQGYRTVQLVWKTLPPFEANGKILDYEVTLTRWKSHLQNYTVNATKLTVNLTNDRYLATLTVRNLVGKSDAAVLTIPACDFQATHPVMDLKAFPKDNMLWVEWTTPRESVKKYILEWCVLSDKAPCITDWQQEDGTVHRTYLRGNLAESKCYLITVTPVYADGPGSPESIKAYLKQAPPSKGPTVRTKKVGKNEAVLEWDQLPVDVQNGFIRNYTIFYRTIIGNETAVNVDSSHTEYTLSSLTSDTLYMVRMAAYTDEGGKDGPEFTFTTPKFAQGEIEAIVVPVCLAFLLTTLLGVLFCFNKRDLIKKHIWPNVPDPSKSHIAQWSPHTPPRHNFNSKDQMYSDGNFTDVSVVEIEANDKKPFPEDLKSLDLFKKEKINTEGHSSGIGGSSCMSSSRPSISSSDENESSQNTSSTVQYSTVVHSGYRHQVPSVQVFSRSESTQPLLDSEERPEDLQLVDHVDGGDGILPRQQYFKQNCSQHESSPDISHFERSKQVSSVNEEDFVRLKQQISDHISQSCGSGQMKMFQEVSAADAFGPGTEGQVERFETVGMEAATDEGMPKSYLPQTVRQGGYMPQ
Procedure: (§1) For the FACS analysis, 0.5×10^6 cells/well of HEK293 parental cells, HEK293/Stat3-luc/gp130-2 X Sort cells, and HEK293/hLEPR-GPI cells, were incubated with 200 nM of the conventional antibodies against either GP130 or LEPR or with LEPRxGP130 bispecific antibodies, along with isotype control antibodies at 4° C. in PBS (without calcium and magnesium) containing 2% FBS.
(§2) Cells were fixed using BD CytoFix™ (Becton Dickinson, #554655) and analyzed on an IQue® (Intellicyt) Flow Cytometer. Unstained and secondary antibody alone controls were also tested for all cell lines. The results were analyzed using ForeCyt® (IntelliCyt) and FlowJo version 10 softwares to determine the geometric means of fluorescence for viable cells.

[2] = target: T2, extracellular domain of human LEPR, GPI-anchored, on HEK293/hLEPR-GPI cells (human, UniProt P48357 22-839, GPI anchor at the C-terminus ; GPI anchor at the C-terminus, added through the carboxypeptidase M signal peptide. The N-terminal myc-myc tag is not written.); assay: FACS, 200 nM antibody on HEK293/hLEPR-GPI cells, no Leptin
T2 sequence: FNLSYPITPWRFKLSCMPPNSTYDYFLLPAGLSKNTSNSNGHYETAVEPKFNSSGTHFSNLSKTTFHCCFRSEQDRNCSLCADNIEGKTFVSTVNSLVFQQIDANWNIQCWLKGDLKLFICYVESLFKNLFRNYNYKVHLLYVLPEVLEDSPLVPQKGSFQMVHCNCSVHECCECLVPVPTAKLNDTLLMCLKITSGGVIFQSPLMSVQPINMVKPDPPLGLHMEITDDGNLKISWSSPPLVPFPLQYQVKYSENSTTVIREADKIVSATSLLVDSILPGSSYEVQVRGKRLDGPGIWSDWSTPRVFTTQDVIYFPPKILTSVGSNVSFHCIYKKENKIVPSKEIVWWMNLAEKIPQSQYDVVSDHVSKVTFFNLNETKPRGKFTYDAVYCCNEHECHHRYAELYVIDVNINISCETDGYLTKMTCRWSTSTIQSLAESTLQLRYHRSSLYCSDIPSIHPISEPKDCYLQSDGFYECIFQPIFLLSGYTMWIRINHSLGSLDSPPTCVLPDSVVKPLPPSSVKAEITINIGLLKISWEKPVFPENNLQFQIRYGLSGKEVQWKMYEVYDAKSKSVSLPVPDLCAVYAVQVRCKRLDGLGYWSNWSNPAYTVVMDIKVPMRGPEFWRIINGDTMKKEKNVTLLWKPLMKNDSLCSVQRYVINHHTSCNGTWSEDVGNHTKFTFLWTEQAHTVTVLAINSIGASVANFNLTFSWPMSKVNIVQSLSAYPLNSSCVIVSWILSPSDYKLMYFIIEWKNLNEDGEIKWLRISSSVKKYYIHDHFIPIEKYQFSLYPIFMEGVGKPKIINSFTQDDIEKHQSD
Procedure: as §1, §2

[3] = target: T2, extracellular domain of human LEPR, …; assay: FACS, 200 nM antibody on HEK293/hLEPR-GPI cells, 1 µM Leptin
Procedure: as §1, §2

Binder | Binding Ratio, normalized to unstained sample (FL4-A) [1] [fold] | Binding Ratio, normalized to unstained sample (FL4-A) [2] [fold] | Binding Ratio, normalized to unstained sample (FL4-A) [3] [fold]
B1 | 235 | 21 | –
B2 | – | 4710 | 4250
B3 | – | 7020 | 6390
